Data published in US10059748B2, “Pharmaceutical compositions for prevention or treatment of neurodegenerative diseases” (INSERM (INSTITUT NATIONAL DE LA SANTÉ ET DE LA RECHERCHE …, priority 2014, dated 2018).

B1: X protein: 87 amino acid X protein of Borna Disease Virus, expressed from a lentiviral vector (LV-X) (protein)
chain: MSSDLRLTLLELVRRLNGNATIESGRLPGGRRRSPDTTTGTVGVTKTTEDPKECIDPTGRPAPEGPQEEPLHDLRPRPANRKGAAIE
modifications: Borna disease virus

How the values were obtained:
[1] = tested on: primary cortical neurons; assay: Kinetics of neuronal death (pyknotic nuclei, TOPRO-3) after rotenone in microfluidic cultures; assay type: cell-based, rat; conditions: somatic application of rotenone
Method: 12 day-old neuronal cultures were subjected to oxidative stress by adding the respiratory chain complex I inhibitors rotenone (1 μM, diluted in DMEM containing 1 g/L glucose (Invitrogen), supplemented with 2 mM glutamine+1% penicillin/streptomycin+2% B-27+1% N2 supplements (Invitrogen)) or MPP+(1-methyl-4-phenylpyridinium, 10 μM in complete neuronal culture medium). The microtubule inhibitor colchicine (10 μM, complete neuronal culture medium) was used as a non-mitochondrial stress control. Toxins were added in the somatic or axonal chambers for respectively, somatic or axonal stress.
Neurons in the microfluidic cultures were fixed for 40 min at room temperature with PBS containing 4% paraformaldehyde (PFA), permeabilized using PBS+0.1% Triton-X100 during 20 min, rinsed with PBS, and blocked for 2 h with PBS+2.5% normal goat serum+3% BSA (blocking buffer). […] Fluorescence-based analyses and measurements were performed on either Zeiss LSM-510 or Zeiss LSM-710 inverted confocal microscopes with a 40× objective (63× objective for the analysis of mitochondrial network morphology and quantification of pDrp1 (S616) immunoreactivity). Immuno fluorescence analyses of Drp1 were performed using anti-pDrp1 (S616) (Cell Signaling Technologies, diluted 1:1000). Quantification of fluorescence intensities was performed using the threshold-based fluorescence quantification module of ImageJ software. […]

[2] = tested on: ROS production in primary neurons; assay: ROS production measurement (c-H2DCFDA); assay type: cell-based, rat; conditions: LV-transduced neurons, no stress
Method: The culture medium was removed from the axonal or somatic chambers and replaced by pre-warmed PBS containing carboxy-2′,7′-dichlorodihydrofluorescein diacetate (c-H2DCFDA, 5 μM in PBS; LifeTechnologies) for 45 min at 37° C., 5% CO2. After 2 washes in PBS, cultures were returned to warm culture medium for 30 min. Cells were fixed and the integrative fluorescence was measured on 3 randomly selected fields for each axonal chamber. Tert-butyl hydroperoxide (TBHP, LifeTechnologies) was used as a positive control of ROS detection. ROS amounts were detected by fluorescence (excitation/emission: 495/529 nm) and quantified by measuring integrative emission signal intensities for each culture (mean of 4 randomly taken pictures in the case of microfluidic cultures using Zeiss LSM 510 confocal; signal intensity of the whole culture for traditional cultures, using a VarioSkan Flash fluorescence reader (Thermo Electron)).

[3] = tested on: mitochondrial network of primary neurons; assay: Analysis of mitochondrial network morphology (Tom20 staining); assay type: cell-based, rat
Method: (§1) Primary cortical neurons were prepared from Sprague-Dawley rat embryos at gestational day 17. After dissection, cortex tissue was dissociated by a 15 min incubation at 37° C. in PBS containing 10 U/ml Papain (Worthington), followed by a gentle dissociation in PBS containing 1.5 mg/ml bovine serum albumin (BSA) and 1.5 mg/ml Trypsin inhibitor (from chicken egg, Sigma-Aldrich). After centrifugation through a 4% BSA cushion, neurons were plated on culture dishes coated with 0.5 mg/ml Poly-DL-Ornithine (PO, overnight, Sigma-Aldrich) and 5 mg/ml Laminin (2 h, Roche). Neuronal cultures were maintained in complete neuronal culture medium composed of serum-free Neurobasal (Gibco) supplemented with 2 mM L-Glutamine, 100 μg/ml penicillin/streptomycin (Gibco) and 2% B-27 supplement (Gibco).
Neurons were grown for 9 days at low density on 12 mm diameter glass coverslips placed in 24-well plates (5×10^4 cells per well). Transduction with lentiviral vectors was performed on day 3, whereas peptide was added to the medium on day 9. Neurons were left untreated or subjected to rotenone treatment (5 to 100 nM for 2 h, diluted in PBS), rinsed, fixed and directly stained for neuronal marker (βIII-tubulin) and mitochondria (Tom20, Santa Cruz Biotech.). Confocal pictures were taken and blinded to the investigator before image analysis. The sizes of mitochondria in all neuronal extensions of randomly selected neurons were determined using ImageJ software and mitochondria were classified in size categories (ranging from <2 μm to >8 μm). Each category was expressed as percentages relative to the size of the total mitochondrial network for a given neuron.

[4] = tested on: primary cortical neurons; assay: Axonal fragmentation in microfluidic primary neuron cultures after toxin treatment; assay type: cell-based, rat; conditions: neurons transduced with lentiviral vectors; rotenone in axonal chamber 16 h
Method: as §1, with “(Gibco). […]” for “(Gibco).”
The analysis of axonal degeneration was performed both by phase contrast observation and after immunostaining of axonal βIII-tubulin (Sigma-Aldrich). […] For each microfluidic culture, the total βIII-tubulin staining area was measured on 4 randomly selected pictures taken in the axonal chamber (MetaMorph software analysis, fixed thresholds). Then, the number of tubulin spots of fragmented axons was manually counted (Imaris software, Spot counting for “clicking” records) and the ratio between the number of spots and the total staining area was defined as a fragmentation index. […]

[5] = tested on: OPA1, Mfn1/2, Fis1, Drp1; assay: Expression and recruitment of mitochondrial fission/fusion actors; assay type: cell-based; conditions: X-expressing cells
[6] = tested on: oxygen consumption rates of primary neurons; assay: Mitochondrial respiration measurements (Seahorse XF24 OCR); assay type: cell-based, rat; conditions: LV-transduced neurons, no stress
Method: Real-time measurements of oxygen consumption rates (OCR) were performed using a Seahorse XF24 extracellular flux analyzer (Seahorse Bioscience). Neurons were seeded and grown for 9 days in Seahorse XF24-wells plates (3×10^4 cells/well). Transduction with lentiviral vectors was performed on the 3rd day after seeding. Before measurements, the culture medium was replaced by warm respiration medium: DMEM without phenol red supplemented with 10 mM glucose, 2 mM L-Glutamine and 2 mM Pyruvate (Gibco) (the pH of the final culture medium was adjusted to 7.4). Following three 2-minute baseline measurements of OCR (3 minute-rest between each measure), mitochondrial complex inhibitors were sequentially injected into each well. Three OCR readings were taken after addition of each inhibitor and before automated injection of the subsequent inhibitor. Mitochondrial complex inhibitors, in order of injection, were Oligomycin (2 μM) to inhibit complex V (i.e., ATP synthase), FCCP (20 μM) to uncouple the proton gradient, Rotenone (2.0 μM), to inhibit complex I and Antimycin (2.0 μM), to inhibit complex III. OCR values were automatically calculated, recorded, and plotted by the Seahorse XF24 software.

[7] = tested on: Drp1 (S616) phosphorylation; assay: Immunofluorescence quantification of phospho-Drp1 (S616); assay type: cell-based, rat
Method: Neurons in the microfluidic cultures were fixed for 40 min at room temperature with PBS containing 4% paraformaldehyde (PFA), permeabilized using PBS+0.1% Triton-X100 during 20 min, rinsed with PBS, and blocked for 2 h with PBS+2.5% normal goat serum+3% BSA (blocking buffer). Incubation for at least 2 h at room temperature with primary antibodies diluted in blocking buffer was followed, after extensive washes in PBS, by 1 h incubation at room temperature with fluorescently-conjugated secondary antibodies diluted in PBS. For TOPRO3 staining, somatic chambers were incubated with TOPRO3 (1:1000 in PBS; Invitrogen) for 10 min and then rinsed twice in PBS. All incubation and washes were reduced by 50% for neurons grown in standard coverslips. Fluorescence-based analyses and measurements were performed on either Zeiss LSM-510 or Zeiss LSM-710 inverted confocal microscopes with a 40× objective (63× objective for the analysis of mitochondrial network morphology and quantification of pDrp1 (S616) immunoreactivity). Immuno fluorescence analyses of Drp1 were performed using anti-pDrp1 (S616) (Cell Signaling Technologies, diluted 1:1000). Quantification of fluorescence intensities was performed using the threshold-based fluorescence quantification module of ImageJ software. All data were normalized on βIII-tubulin staining.

[8] = tested on: nigrostriatal dopaminergic (DA) neurons; assay: MPTP intoxication mouse model of PD, TH immunodetection in striatum and SNpc; assay type: in vivo; conditions: lentiviral vector, stereotaxic injection in SNpc two weeks before MPTP
Method: Peptides covering the N-terminal (PX1, aa 1-30), middle (PX2, aa 29-59) or C-terminal (PX3, aa 59-87) parts of BDV X protein (GenBank: ABW81015.1) coupled to the MPP sequence were synthesized to >95% (in vitro studies) or >99% (in vivo studies) purity (Génosphère). For in vitro experiments, neurons were grown for 12 days before replacing the medium by fresh complete neuronal culture medium containing 5 μM of the peptides. The cultures were maintained 90 min at 37° C., 5% CO2 before any treatment or analysis to ensure peptide penetration into neuronal mitochondria. For intra-cerebroventricular delivery, peptides were injected as described below. For intranasal peptide delivery, 10 μl drops of peptide solution (1 mM solution in saline: H2O+0.9% NaCl) were placed onto the mice nostrils daily from the day before to the 3rd day after MPTP intoxication. […]
For immunohistochemical staining, free-floating brain sections were first quenched for 5 min in 20% (v/v) methanol and 1% (v/v) hydrogen peroxide diluted in PBS, then blocked for 30 min in a 4% solution of BSA diluted in PBS-0.3% Triton-X100 and incubated overnight at 4° C. with a primary antibody directed against tyrosine hydroxylase (1:500 dilution, US biological). […] TH-positive neurons were quantified stereologically on regularly spaced sections covering the whole Substantia Nigra pars compacta (SNpc). […]

[9] = tested on: mitochondrial membrane potential (ΔΨm) of primary neurons; assay: Mitochondrial membrane potential analysis (JC-1); assay type: cell-based, rat; conditions: LV-transduced neurons, no stress
Method: Axons were stained with JC-1 dye (2 μM in PBS; LifeTechnologies) as described by the manufacturer. Briefly, JC-1 was added to the culture medium for 45 min at 37° C., 5% CO2, washed twice with PBS and analyzed by confocal microscopy using 488 nm excitation together with 530 nm and 585 nm band pass emission filters, whilst maintaining the cells at 37° C. and 5% CO2. Total fluorescence intensity was measured for each emission band pass with fixed thresholds and ratios between “red” (585 nm: active mitochondria) and “green” (530 nm: total mitochondria network) were determined for each culture (means of 4 randomly chosen pictures for each microfluidic culture).

Row | Molecule | time to cell death [1] [h] | impact on ROS production at steady-state [2] | rotenone-induced mitochondrial fission ([3]; after rotenone) | weighted mean size of mitochondria ([3]; after rotenone-induced oxidative stress (10 nM rotenone 2 h)) [μm] | decrease of short, fragmented mitochondria (<2 μm) ([3]; steady state) [%] | weighted mean size of mitochondria ([3]; steady state, without rotenone) [μm] | protection against rotenone-induced axonal fragmentation [4] | expression levels of OPA1, Mfn1/2, Fis1, Drp1 vs control cells [5] | recruitment of Drp1 to the mitochondria vs control cells [5] | impact on respiration at steady-state [6] | enhanced Drp1 phosphorylation after treatment with rotenone ([7]; after rotenone) | phosphorylation of Drp1 on serine-616 ([7]; steady state) | ipsilateral TH-positive neurons in the SNpc after MPTP [8] | ipsilateral striatal fibers (TH) after MPTP [8] | impact on ΔΨm at steady-state [9]
1 | C=C(C)[C@H]1Cc2c(ccc3c2O[C@@H]2COc4cc(OC)c(OC)cc4[C@@H]2C3=O)O1 [rotenone] | < 4 |  |  |  |  |  |  |  |  |  |  |  |  |  | 
2 | B1 |  | no impact | significantly reduced | 4.54 | 60 | 5.22 | same level of axonal protection as infection with BDV | did not find any significant difference | no difference | no impact | selectively reduced | severely reduced | almost complete protection | preservation | no impact
